According to article doi:10.1101/2021.03.09.434543:

What was measured:
[1] = target: OsFD7, FLIM-FRET fusion (rice (Oryza sativa)); assay: FRET or BRET
OsFTL1-GST = OsFTL1-GST (Oryza sativa (rice), UniProt B7ELI3 1-276); assay: EMSA
OsFD7 (OsbZIP62)-GST = target: T1, OsFD7 (OsbZIP62)-GST (Oryza sativa (rice), UniProt B7F384 1-274); assay: EMSA
T1 sequence: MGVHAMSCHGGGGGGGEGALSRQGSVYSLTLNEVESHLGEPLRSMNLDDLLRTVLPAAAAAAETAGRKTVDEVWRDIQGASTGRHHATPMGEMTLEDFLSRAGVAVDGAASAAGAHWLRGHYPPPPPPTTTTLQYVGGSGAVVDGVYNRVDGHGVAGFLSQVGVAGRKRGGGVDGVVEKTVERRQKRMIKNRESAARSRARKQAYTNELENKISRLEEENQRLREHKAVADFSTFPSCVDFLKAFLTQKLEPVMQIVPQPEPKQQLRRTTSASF

OsGF14b-GST = OsGF14b-GST (Oryza sativa (rice), UniProt Q7XTE8 1-262); assay: EMSA
[2] = target: OsFD7 (OsbZIP62)-GST;OsFTL1-GST (Oryza sativa (rice);Oryza sativa (rice), UniProt B7F384;B7ELI3 1-274;1-276, |); assay: EMSA
[3] = target: OsFD7 (OsbZIP62)-GST;OsFTL1-GST;OsGF14b-GST (Oryza sativa (rice);Oryza sativa …, UniProt B7F384;B7ELI3;Q7XTE8 1-274;1-276;1-262, ||); assay: EMSA

OsGF14b-GST, sequence (Q7XTE8 whole entry): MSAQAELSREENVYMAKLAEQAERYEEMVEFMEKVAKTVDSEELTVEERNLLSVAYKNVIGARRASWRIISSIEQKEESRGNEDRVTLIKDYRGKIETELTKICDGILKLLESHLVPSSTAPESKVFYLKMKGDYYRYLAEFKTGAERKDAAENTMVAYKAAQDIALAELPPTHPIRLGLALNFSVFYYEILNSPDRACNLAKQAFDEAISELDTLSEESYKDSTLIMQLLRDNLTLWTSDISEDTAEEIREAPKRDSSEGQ

**Q.** For “Hd3a, FLIM-FRET fusion (from UniProt Q93WI9 1-179) (natural protein)”, which FRET efficiency [1] is on record?
**A.** 15.1%

**Q.** For “OsFTL1, FLIM-FRET fusion (natural protein)”, which FRET efficiency [1] is on record?
**A.** 23.3%

B1: GB oligo (dsDNA)
DNA 1: GTCACATACACGTGTCAGCTCAG
DNA 2: CTGAGCTGACACGTGTATGTGAC
**Q.** What does the source list for B1?
**A.** binding result (OsFTL1-GST): no binding; binding result (OsFD7 (OsbZIP62)-GST): binds; binding result (OsGF14b-GST): no binding; binding result [2]: binds; binding result [3]: binds
